Test [1] has as its target IgA of the IgM/IgA-enriched immunoglobulin Pentaglobin. As to the kind of experiment: non-reducing SDS-PAGE with Western blot; Pentaglobin separated by non-reducing SDS-PAGE, transferred to nitrocellulose; J-chain, IgA and IgM detected with specific antibodies and fluorophore labeled secondary antibodies.
Test [2] concerns the target IgM of the IgM/IgA-enriched immunoglobulin Pentaglobin. The test is described as above.

Chain of IgM of the IgM/IgA-enriched immunoglobulin Pentaglobin (P01871 whole entry): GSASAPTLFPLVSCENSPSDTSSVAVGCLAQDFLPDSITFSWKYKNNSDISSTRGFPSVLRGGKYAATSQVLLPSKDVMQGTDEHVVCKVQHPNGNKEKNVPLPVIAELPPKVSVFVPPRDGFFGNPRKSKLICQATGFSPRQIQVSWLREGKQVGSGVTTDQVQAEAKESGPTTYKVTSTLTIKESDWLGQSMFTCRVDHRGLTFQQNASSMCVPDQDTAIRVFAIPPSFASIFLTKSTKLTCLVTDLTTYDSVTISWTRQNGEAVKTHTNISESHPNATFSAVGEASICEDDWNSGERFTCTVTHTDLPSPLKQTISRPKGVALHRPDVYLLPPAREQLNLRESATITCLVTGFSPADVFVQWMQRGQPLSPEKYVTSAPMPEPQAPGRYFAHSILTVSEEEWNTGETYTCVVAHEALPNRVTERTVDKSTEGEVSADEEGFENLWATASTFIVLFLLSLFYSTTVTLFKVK
Chain of IgA of the IgM/IgA-enriched immunoglobulin Pentaglobin (P01876 whole entry): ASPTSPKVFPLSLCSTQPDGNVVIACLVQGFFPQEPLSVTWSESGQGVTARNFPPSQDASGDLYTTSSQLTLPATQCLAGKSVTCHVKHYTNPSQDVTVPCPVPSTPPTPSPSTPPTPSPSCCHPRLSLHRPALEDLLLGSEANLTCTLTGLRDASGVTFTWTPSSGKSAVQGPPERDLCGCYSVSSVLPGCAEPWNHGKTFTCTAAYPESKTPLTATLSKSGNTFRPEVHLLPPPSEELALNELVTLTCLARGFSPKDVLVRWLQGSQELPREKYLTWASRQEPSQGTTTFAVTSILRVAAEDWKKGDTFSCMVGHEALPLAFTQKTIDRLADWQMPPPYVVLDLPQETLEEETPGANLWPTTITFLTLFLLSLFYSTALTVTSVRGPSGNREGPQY

“IgA of the IgM/IgA-enriched immunoglobulin Pentaglobin (natural protein)” came in with a stoichiometry N in test [1] of 2.

Take “IgM of the IgM/IgA-enriched immunoglobulin Pentaglobin (natural protein)”: the stoichiometry N in test [2] worked out at 5.

For the origin of these results see paper PMC8948467.
